Reference: publication PMC3169560 (PLoS Pathogens, 2011)

Target: T1, HIV-1 Env glycoprotein complex (gp120/gp41) with full-length gp41, on HIV-1 particles of proviral clone R9 … (HIV-1 group M subtype B, proviral clone …)
T1 construct: also called WT; wild-type HIV-1; copies: 3 + 3
Assay: immunofluorescence imaging of antibody binding to single immobilised virions; IMMATURE, protease-defective particles (R9.PR- or R9Tr712.PR-) with GFP-Vpr on poly-D-lysine coated dishes; unfixed virions incubated with IgG or CD4-IgG2 (0.25 µg/mL) for 2 h at room temperature, fixed in 2% paraformaldehyde, Cy5 anti-human IgG, confocal microscopy; median average Cy5 intensity per GFP-positive particle; CD4-IgG2 results …
Conditions: one partner purified

B1: HIV-1 gp41 mAb 4E10 (full-length IgG) (antibody, V domains shown)
VH: QVQLVQSGAEVKRPGSSVTVSCKASGGSFSTYALSWVRQAPGRGLEWMGGVIPLLTITNYAPRFQGRITITADRSTSTAYLELNSLRPEDTAVYYCAREGTTGWGWLGKPIGAFAHWGQGTLVTVSS
VL: EIVLTQSPGTQSLSPGERATLSCRASQSVGNNKLAWYQQRPGQAPRLLIYGASSRPSGVADRFSGSGSGTDFTLTISRLEPEDFAVYYCQQYGQSLSTFGQGTKVEVK
notes: copies: 2 + 2
  fold increase in binding to immature over mature virions, particles with an average intensity above 50 a.u.: 6 fold
  median average intensity per particle, PR- image over wild-type image: 1.4 fold
